Test results: patent US20190100594A1 (INHIBRX, published 2019)
Where a chain is given by its changes, count along the chain named.

B1: hzC06v1.4 (VHH)
VHH: EVQLLESGGGEVQPGGSLRLSCAASGSVFSIDAMGWYRQAPGQQRELVSALSGISSATYAESVKGRFTISRDNAKNTLYLQMSSLRAEDTAVYYCYADVSTGWGRDAHGYWGQGTLVTV
B2: hzC06v1.1 (VHH)
VHH: B1 VHH with Q43K, Q44G, R45L
B3: hzC06v2.3 (VHH)
VHH: B1 VHH with Q43K, S49A, A50V
B4: hzC06v1.3 (VHH)
VHH: B1 VHH with Q43K
B5: hzC06v1.2 (VHH)
VHH: B1 VHH with Q43K, Q44G
B6: hzC06v2.4 (VHH)
VHH: B1 VHH with S49A, A50V
B7: hzC06v2.2 (VHH)
VHH: B1 VHH with Q43K, Q44G, S49A, A50V
B8: hzCC04v5.5 (VHH)
VHH: EVQLLESGGGEVQPGGSLRLSCAASGFTFSTHGMDWFRQAPGKDLEWVSAIQSGGSWTSYASSVKGRFTISRDNAKNTLYLQMQQLRAEDTAVYWCQNRVTRGQGTLVTV
notes: sheet prints hzCC04, text hzC04; also called hzC04v5.5
B9: hzCC04v5.7 (VHH)
VHH: B8 VHH with Q84D, Q85N
notes: sheet prints hzCC04, text hzC04; also called hzC04v5.7
B10: hzCC04v5.12 (VHH)
VHH: B8 VHH with Q84S, Q85N
notes: sheet prints hzCC04, text hzC04; also called hzC04v5.12
B11: hzCC04v5.6 (VHH)
VHH: B8 VHH with Q85N
notes: sheet prints hzCC04, text hzC04; also called hzC04v5.6
B12: hzCC04v5.9 (VHH)
VHH: B8 VHH with Q84D, Q85D
notes: sheet prints hzCC04, text hzC04; also called hzC04v5.9
B13: hzCC04v5.8 (VHH)
VHH: B8 VHH with Q84N, Q85D
notes: sheet prints hzCC04, text hzC04; also called hzC04v5.8
B14: hzCC04v5.10 (VHH)
VHH: B8 VHH with Q85D
notes: sheet prints hzCC04, text hzC04; also called hzC04v5.10
B15: hzCC04v5.11 (VHH)
VHH: B8 VHH with Q84N
notes: sheet prints hzCC04, text hzC04; also called hzC04v5.11
B16: hzC06v3 (VHH)
VHH: B1 VHH with Q43K, S49A, A50V, T58K
B17: hzC06v2.1 (VHH)
VHH: B1 VHH with Q43K, Q44G, R45L, S49A, A50V
B18: hzC06v3.1 (VHH)
VHH: B1 VHH with Q39L, S49A, A50V, T58K
B19: hzC06v3.2 (VHH)
VHH: B1 VHH with Q43K, S49A, A50V, T58K, E61D, R71G
B20: hzC06v3.5 (VHH)
VHH: B1 VHH with Q43K, S49A, A50V, T58K, D72A, N73S, K75P
B21: hzC06v3.8 (VHH)
VHH: EVQLLESGGGEVQPGGSLRLSCAASGSVFSIDAMGWYRQAPGKQRELVAVLSGISSAKYAASAPGRFTISRDAVENTVYLQMSSLRAEDTAVYYCYADVSTGWGRDAHGYWGQGTLVTV
B22: hzC06v3.11 (VHH)
VHH: B21 VHH with A61D, S62A, A63V, P64E, D72A, A73S, V74A, E75P
B23: B2 (VHH, not shown: a dimerising Fc or GST; small tags and cut ends)
VHH: QVQLQESGGGLVQPGGSLRLSCAASGSVFSIDSMSWFRQAPGNERELVALITGGHTTTYGDSVKGRFTISRASAPNTVHLQMNSLQPEDTAVYYCNAAVSTGWGRNADDYWGQGTQVTVS
B24: E2 (VHH, not shown: a dimerising Fc or GST; small tags and cut ends)
VHH: B23 VHH with H55R, G60A, H79Y, Q86K, A98V
B25: B3 (VHH, not shown: a dimerising Fc or GST)
VHH: QVQLVQSGGGLVQPGGSLRLICAASGSVFSIDSMSWFRQRPGNERELVALITGGRTTTYSDSVKGRFTISRASALNTVHLQMNSLKPEDTAVYYCNAALSTGWGRDASAYWGQGTQVTVS
B26: F2 (VHH, not shown: a dimerising Fc or GST; small tags and cut ends)
VHH: QLVQSGGGLVQPGESLRLSCAASGSVFSIDSVSWFRQGPGNERELVALITGGRTTTYADSVKGRFTISRANAPNTVHLRMNSLKPEDTAVYYCNAAVSTGWGRNADDYWGQGTQVTVS
B27: H11 (VHH, not shown: a dimerising Fc or GST)
VHH: B23 VHH with Q5V, E6Q, H55R, G60A, Q86K, A98V
B28: B7 (VHH, not shown: a dimerising Fc or GST)
VHH: B23 VHH with A40T, L50H, H55R, G60A, S84N, Q86K
B29: B5 (VHH, not shown: a dimerising Fc or GST)
VHH: B23 VHH with Q5V, E6Q, G16E, A40G, H55R, G60A, S73N, Q86E
B30: C4 (VHH, not shown: a dimerising Fc or GST)
VHH: B23 VHH with Q5V, E6Q, G16E, A40G, H55R, G60A, S73N, Q86K, N106S
B31: B12 (VHH, not shown: a dimerising Fc or GST)
VHH: QVQLQQSGGGLVQAGGSLRLSCAASGSIFSIDAMGWYRLAPGKQRELVAVIDGVSPNYADSVKGRFTISSDIAKNTVYLQMHSPKPEDTAVYYCNADVSTGWGRPADHYWGQGTQVTVS
B32: C7 (VHH, not shown: a dimerising Fc or GST)
VHH: QVQLQESGGGLVQAGGSLRLSCTASGSIFSIDDMGWYRLAPGKQRELVAVHSGSSTNYGDSVKGRFTISGDSAKNTVYLQMHRLEPEDTAVYYCYAAISSGWGRDAEDYWGQGTQVTVS

molecular target: T1, cyno GITR-CHO (cynomolgus monkey); experiment: flow cytometry on cyno GITR-CHO cells
T1 construct: expressed on the surface of CHO cells, construct not described; also called cynomolgus GITR expressed on the surface of CHO cells

Binder | EC50 (read off the curve) [nM]
B1 | ~4
B2 | ~8
B3 | ~4
B4 | ~4
B5 | ~4
B6 | ~4
B7 | ~4

molecular target: T1, cyno GITR-CHO; experiment: flow cytometry on cyno GITR-CHO cells; remark: another data set of the same source

Binder | EC50 (read off the curve) [nM]
B8 | 1 to 2
B9 | 1 to 2
B10 | 1 to 2
B11 | 1 to 2
B12 | 1 to 2
B13 | 1 to 2
B14 | 1 to 2
B15 | 1 to 2

molecular target: T2, human GITR-CHO (human, UniProt Q9Y5U5); experiment: flow cytometry on human GITR-CHO cells
T2 construct: expressed on the surface of CHO cells, construct not described; also called human GITR expressed on the surface of CHO cells
T2 sequence (looked up): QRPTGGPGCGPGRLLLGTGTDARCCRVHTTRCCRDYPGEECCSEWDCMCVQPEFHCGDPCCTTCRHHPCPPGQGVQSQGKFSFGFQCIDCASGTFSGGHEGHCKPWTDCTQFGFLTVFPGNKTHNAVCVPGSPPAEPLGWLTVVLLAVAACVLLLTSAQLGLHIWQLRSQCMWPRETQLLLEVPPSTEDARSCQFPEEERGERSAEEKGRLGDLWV

Binder | EC50 (read off the curve) [nM]
B16 | 1 to 2
B17 | 1 to 2
B1 | 1 to 2
B2 | 1 to 2
B3 | 1 to 2
B4 | 1 to 2
B5 | 1 to 2
B6 | 1 to 2
B7 | 1 to 2

molecular target: T2, human GITR-CHO; experiment: flow cytometry on human GITR-CHO cells; remark: another data set of the same source

Binder | EC50 (read off the curve) [nM]
B18 | ~4
B19 | ~4
B20 | ~4

molecular target: T2, human GITR-CHO; experiment: flow cytometry on human GITR-CHO cells; remark: another data set of the same source

Binder | EC50 (read off the curve) [nM]
B21 | 1 to 2
B22 | 1 to 2

molecular target: T2, human GITR-CHO; experiment: flow cytometry on human GITR-CHO cells; remark: another data set of the same source

Binder | EC50 (read off the curve) [nM]
B8 | ~2
B9 | ~2
B10 | ~2
B11 | ~2
B12 | ~2
B13 | ~2
B14 | ~2
B15 | ~2

molecular target: T3, GITR expressed on CHO cells (Homo sapiens (Human), UniProt Q9Y5U5 26-241); experiment: flow cytometry on GITR-expressing CHO cells, MFI-FL4
T3 construct: also called glucocorticoid-induced TNFR-related protein; TNFRSF18
T3 sequence: T2 sequence (looked up)

Binder | EC50 (read off the curve) [nM]
B23 | ~0.7
B24 | ~1
B25 | ~2
B26 | ~1

molecular target: T3, GITR expressed on CHO cells; experiment: as above; remark: another data set of the same source

Binder | EC50 (read off the curve) [nM]
B27 | 2 to 3
B28 | ~3
B29 | 2 to 3
B30 | 2 to 3
B31 | ~4
B32 | ~2

molecular target: T3, GITR expressed on CHO cells; experiment: flow cytometry competition on GITR-expressing CHO cells; blocked ligand recombinant GITRL; readout GITRL bound, MFI-FL1
From the text: Briefly, in these studies, a flow cytometry assay using GITR expressing CHO cells and recombinant GITRL was used to implement to assess blocking capacity. The GITR antibody, TRX-518, was used as a control for these studies.

Binder | IC50 (read off the curve) [nM]
B27 | 2 to 3
B28 | ~3
B23 | ~1
B29 | 2 to 3
B30 | 2 to 3
B24 | ~2
B25 | ~3
B31 | ~6
B26 | ~1
B32 | 2 to 3
